Measurements from patent US20210388081A1 (Memorial Sloan Kettering, published 2021).

T1: FcRL1, overexpressed on 3T3 cells (UniProt Q96LA6 17-429, limits assumed)
T1 construct: whole, on cells
T1 sequence (looked up): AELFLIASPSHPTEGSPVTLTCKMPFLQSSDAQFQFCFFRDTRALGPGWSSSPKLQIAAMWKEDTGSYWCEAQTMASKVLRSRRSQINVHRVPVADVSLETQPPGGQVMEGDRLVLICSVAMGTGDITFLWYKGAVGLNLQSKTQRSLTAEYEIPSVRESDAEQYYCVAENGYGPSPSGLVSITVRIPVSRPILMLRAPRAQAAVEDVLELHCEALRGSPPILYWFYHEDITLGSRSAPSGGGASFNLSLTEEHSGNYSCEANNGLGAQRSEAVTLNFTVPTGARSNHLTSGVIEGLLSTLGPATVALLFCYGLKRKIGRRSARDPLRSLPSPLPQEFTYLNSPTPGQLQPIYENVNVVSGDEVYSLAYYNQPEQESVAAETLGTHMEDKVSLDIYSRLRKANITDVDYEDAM

T2: FcRL2, overexpressed on 3T3 cells (UniProt Q96LA5 20-508, limits assumed)
T2 construct: whole, on cells
T2 sequence (looked up): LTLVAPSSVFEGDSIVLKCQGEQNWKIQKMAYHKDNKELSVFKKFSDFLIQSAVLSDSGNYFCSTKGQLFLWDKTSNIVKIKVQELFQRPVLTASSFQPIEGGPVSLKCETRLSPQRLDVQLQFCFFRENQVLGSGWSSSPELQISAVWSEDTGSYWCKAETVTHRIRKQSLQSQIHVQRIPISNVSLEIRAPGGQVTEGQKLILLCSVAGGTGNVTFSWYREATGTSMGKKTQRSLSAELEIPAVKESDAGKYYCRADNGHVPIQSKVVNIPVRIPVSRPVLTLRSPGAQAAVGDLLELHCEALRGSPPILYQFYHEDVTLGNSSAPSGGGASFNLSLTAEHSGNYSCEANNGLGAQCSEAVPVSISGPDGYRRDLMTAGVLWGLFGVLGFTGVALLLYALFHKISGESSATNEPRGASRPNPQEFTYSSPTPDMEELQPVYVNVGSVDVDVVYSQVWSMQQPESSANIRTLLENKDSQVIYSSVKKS

T3: FcRL3, overexpressed on 3T3 cells (UniProt Q96P31 18-734, limits assumed)
T3 construct: whole, on cells
T3 sequence (looked up): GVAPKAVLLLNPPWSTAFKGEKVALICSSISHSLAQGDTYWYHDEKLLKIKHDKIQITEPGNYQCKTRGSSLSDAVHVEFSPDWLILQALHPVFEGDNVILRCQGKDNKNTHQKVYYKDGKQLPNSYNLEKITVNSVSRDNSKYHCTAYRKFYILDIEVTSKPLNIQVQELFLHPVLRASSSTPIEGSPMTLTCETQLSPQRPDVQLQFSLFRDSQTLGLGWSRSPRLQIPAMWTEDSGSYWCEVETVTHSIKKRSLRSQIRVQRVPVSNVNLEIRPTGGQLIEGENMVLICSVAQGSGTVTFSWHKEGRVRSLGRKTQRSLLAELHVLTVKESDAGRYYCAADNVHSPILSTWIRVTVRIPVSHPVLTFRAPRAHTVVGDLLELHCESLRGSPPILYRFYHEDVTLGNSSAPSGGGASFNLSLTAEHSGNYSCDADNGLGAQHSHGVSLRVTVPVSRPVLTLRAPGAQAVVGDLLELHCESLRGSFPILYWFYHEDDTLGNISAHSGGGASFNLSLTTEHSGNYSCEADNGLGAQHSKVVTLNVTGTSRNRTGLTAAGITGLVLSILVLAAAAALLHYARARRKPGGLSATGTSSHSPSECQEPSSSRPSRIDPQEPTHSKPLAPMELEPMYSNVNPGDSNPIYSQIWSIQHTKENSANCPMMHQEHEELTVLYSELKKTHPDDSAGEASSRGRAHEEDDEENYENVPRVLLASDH

T4: Fc Receptor-like 5 (FcRL5), full length, overexpressed on 3T3 or Raji cells (human, UniProt Q96RD9 16-977)
T4 construct: also called 3T3-FcRL5
T4 sequence: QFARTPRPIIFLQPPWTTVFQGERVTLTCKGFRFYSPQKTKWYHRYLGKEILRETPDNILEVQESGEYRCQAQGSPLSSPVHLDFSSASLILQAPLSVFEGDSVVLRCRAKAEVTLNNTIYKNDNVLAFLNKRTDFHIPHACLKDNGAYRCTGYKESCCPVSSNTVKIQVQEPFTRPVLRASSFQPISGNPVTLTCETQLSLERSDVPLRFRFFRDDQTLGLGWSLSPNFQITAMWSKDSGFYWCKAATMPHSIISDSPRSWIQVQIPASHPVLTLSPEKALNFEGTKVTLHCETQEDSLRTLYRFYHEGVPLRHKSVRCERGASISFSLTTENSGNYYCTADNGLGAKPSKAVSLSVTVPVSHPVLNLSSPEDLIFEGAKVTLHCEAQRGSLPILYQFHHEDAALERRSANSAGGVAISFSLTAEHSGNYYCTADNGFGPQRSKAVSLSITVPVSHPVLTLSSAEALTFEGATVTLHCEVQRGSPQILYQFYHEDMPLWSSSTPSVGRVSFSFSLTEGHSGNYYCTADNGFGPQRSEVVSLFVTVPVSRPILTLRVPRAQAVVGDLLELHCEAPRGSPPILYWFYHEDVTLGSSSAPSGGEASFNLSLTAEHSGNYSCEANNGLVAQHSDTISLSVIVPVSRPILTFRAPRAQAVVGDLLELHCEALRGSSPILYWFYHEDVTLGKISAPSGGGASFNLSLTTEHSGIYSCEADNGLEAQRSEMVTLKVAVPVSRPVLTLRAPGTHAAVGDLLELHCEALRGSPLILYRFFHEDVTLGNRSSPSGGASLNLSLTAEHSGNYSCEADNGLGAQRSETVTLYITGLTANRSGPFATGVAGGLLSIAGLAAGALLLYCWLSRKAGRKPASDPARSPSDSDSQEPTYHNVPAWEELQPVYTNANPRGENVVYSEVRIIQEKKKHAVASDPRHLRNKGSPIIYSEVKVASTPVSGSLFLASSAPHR

B1: ET200-013 (scFv)
scFv: QSVVTQPPSVSGAPGQRVTISCTGSTSNIGAGYDVHWYQQLPGTAPKLLIYTNNFRPSGVPDRFSASKSGTSASLAITGLQAEDEADYYCGTWDSSLSAVVFGGGTKLTVLGSRGGGGSGGGGSGGGGSLEMAEVQLVESGTEVKKPGASVKVSCKASGYMFTSYGLNWVRQAPGQGLEWMGWISANNGKTNYAKKFQDRVTMTRDTSTSTGYMELRSLRSDDTAVYYCARHIGGSYFDRWGQGTLVTVSSTSGQAGQHHHHHHGAYPYDVPDYAS
notes: screened as phage clone; entry is VL-linker-VH-His tag-HA tag
B2: ET200-011 (scFv)
scFv: QSVVTQPPSVSAAPGQRVTISCSGSSSNISIYDVSWYQQLPGTAPKLLIYGNNKRPSGIADRFSGSTSGTSATLGITGLQTGDEADYYCGTWDDSLSGGVFGGGTKLTVLGSRGGGGSGGGGSGGGGSLEMAQMQLVQSGAEVKKPGSSVKVSCEASGGTLSSYAINWVRQAPGQGLEWMGGIIPMFGTAHYAQKFQGRVTITADESTKTAYMELSSLRSEDTAVYYCARGVHYASFDHWGQGTLVTVSSTSGQAGQHHHHHHGAYPYDVPDYAS
notes: as for B1
B3: ET200-014 (scFv)
scFv: SYVLTQPPSVSVAPGKTARITCGGNNIGSKSVHWYQQKPGQAPVLVIYYDSDRPSGIPERFSGSNSGNTATLTISRVEAGDEADYYCQVWDSSSDHYVFGTGTKVTVLGSRGGGGSGGGGSGGGGSLEMAEVQLVETGGGLVQPGGSLRLSCAASGFTFSSYAMSWVRQAPGKGLEWVSAISGSDGSTYYADSVKGRFTISRDNSKNTLYLQMNSLRDEDTAVYYCARSHEANLVGDWWGQGTLVTVSSTSGQAGQHHHHHHGAYPYDVPDYAS
notes: as for B1
B4: ET200-012 (scFv)
scFv: QSVLTQPPSVSAAAGQKVTISCSGSDSNIGNNYVSWYQHLPGTAPKLLIYDVKNRPSGIPDRFSGSKSGSSATLGIAGLQPGDEADYYCGTWDSRLDAYVFGTGTKVTVLGSRGGGGSGGGGSGGGGSLEMAQMQLVQSGAEVKKPGASVKVSCKTSGFPFNIFGITWVRQAPGQGLEWMGWISGYNGNTDYPQKFQGRVTMSTDTSTSTAYMELRNLKSDDTAVYYCARGAYGGMDTWGQGTLVTVSSTSGQAGQHHHHHHGAYPYDVPDYAS
notes: as for B1
B5: ET200-017 (scFv)
scFv: SYVLTQPPSVSVAPGKTARITCGGNNIGSKSVHWYQQKPGQAPVLVVYDDSDRPSGIPERFSGSNSGNTATLSISRVEAGDEADYYCQVWDSSSDHTVFGTGTKVTVLGSRGGGGSGGGGSGGGGSLEMAQVQLQQWGAGLLKPSETLSLTCAVYGGSFSGYYWSWIRQPPGKGLEWIGEINHSGSTNYNPSLKSRVTISVDTSKNQFSLKLSSVTAADTAVYYCARYYPGMDMWGQGTLVTVSSTSGQAGQHHHHHHGAYPYDVPDYAS
notes: as for B1
B6: ET200-016 (scFv)
scFv: SSELTQDPAVSVALGQTVKITCQGDSLTDYHATWYQQKPGQAPVAVIYATNNRPTGIPDRFSGSSSGNTASLTITGAQAEDEADYYCNSRDSGTDEVLFGGGTKLTVLGSRGGGGSGGGGSGGGGSLEMAEVQLVETGGGLVKPGGSLRLSCAASGFTFSSYSMNWVRQAPGKGLEWVSSISSSSSYIYYADSVKGRFTISRDNAKNSLYLQMNSLRAEDTAVYYCARGQGYDYWGQGTLVTVSSTSGQAGQHHHHHHGAYPYDVPDYAS
notes: as for B1
B7: ET200-018 (scFv)
scFv: QAVLTQPPSTSGTPGQRVTISCSGSSSNIGRNGVNWYQQLPGAAPKVLIYNDNQRPSGVPDRVSGSQSGSSGTLAIDGLRSEDEADYYCAAWDDSLHGVVFGGGTKLTVLGSRGGGGSGGGGSGGGGSLEMAQVQLVQSGAEVKKPGASVKVSCKVSGYTLNELSMHWVRQAPGKGLEWMGGFDPEDGETIYAQKFQGRVTMTEDTSTDTAYMELSSLRSEDTAVYYCARGGYGDSWGQGTLVTVSSTSGQAGQHHHHHHGAYPYDVPDYAS
notes: as for B1
B8: ET200-015 (scFv)
scFv: QSVVTQPPSVSVAPGKTARITCGGNNIGSKSVHWYQQKPGQAPVLVIYYDSDRPSGIPERFSGSNSGNTATLTISRVEAGDEADYYCQVWDSSSDVVFGGGTKLTVLGSRGGGGSGGGGSGGGGSLEMAEVQLVQSGAEVKKPGASVKVSCKASGYTFTSYGISWVRQAPGQGLEWMGWISAYNGNTNYAQKLQGRVTMTTDTSTSTAYMELRSLRSDDTAVYYCARWGGFGAVDHWGQGTLVTVSSTSGQAGQHHHHHHGAYPYDVPDYAS
notes: as for B1

Legend:
[1] = target: T1, FcRL1, overexpressed on 3T3 cells; experiment: phage clone on 3T3-FcRL1 cells
[2] = target: T2, FcRL2, overexpressed on 3T3 cells; experiment: phage clone on 3T3-FcRL2 cells
[3] = target: T3, FcRL3, overexpressed on 3T3 cells; experiment: phage clone on 3T3-FcRL3 cells
[4] = target: T4, Fc Receptor-like 5 (FcRL5), full …; experiment: phage clone screening on cells
Method: Once selected, positive scFv clones are further tested for their binding to FcRL5 (e.g., human FcRL5) on live 3T3 cell surfaces by flow cytometry. Briefly, phage clones are incubated with 3T3 cells over-expressing FcRL5. The cells are washed and then incubated with a mouse anti-M13 coat protein mAb. Cells are washed again and labeled with a PE-horse anti-mouse Ig prior to flow cytometry.
Phage′ display against FcRL5 was performed to enrich for scFv phage clones that bind to FcRL5 specifically. Screening was carried out on FcRL5 overexpressing 3T3 cells or 3T3 cells expressing FcRL1, 2, 3, 4 or 6 as a negative control (FIG. 2).

Binder	binding result [1]	binding result [2]	binding result [3]	binding result [4]
B1	no binding	no binding	no binding	binds
B2	no binding	no binding	no binding	binds
B3	no binding	no binding	no binding	binds
B4	no binding	no binding	no binding	binds
B5	no binding	no binding	no binding	binds
B6	no binding	no binding	no binding	binds
B7	no binding	no binding	no binding	binds
B8	no binding	no binding	no binding	binds
